Measured values as given in publication PMC10015101.

Columns and labels:
Assay in all cases: SEC
[1] = molecular target: BM48-31 soluble spike ectodomain, stabilised (2P, GSAS linker, T4 fibritin trimerization motif) (bat sarbecovirus BM48-31 | bacteriophage T4)
[2] = molecular target: BtKY72 soluble spike ectodomain, stabilised (2P, GSAS linker, T4 fibritin trimerization motif) (bat sarbecovirus BtKY72 | bacteriophage T4)
[3] = molecular target: Pang17 soluble spike ectodomain, stabilised (2P, GSAS linker, T4 fibritin trimerization motif) (pangolin sarbecovirus pang17 | bacteriophage T4)
[4] = molecular target: RaTG13 soluble spike ectodomain, stabilised (2P, GSAS linker, T4 fibritin trimerization motif) (bat sarbecovirus RaTG13 | bacteriophage T4)
[5] = molecular target: RmYN02 soluble spike ectodomain, stabilised (2P, GSAS linker, T4 fibritin trimerization motif) (bat sarbecovirus RmYN02 | bacteriophage T4)
[6] = molecular target: Rs4081 soluble spike ectodomain, stabilised (2P, GSAS linker, T4 fibritin trimerization motif) (bat sarbecovirus RS4081 | bacteriophage T4)
[7] = molecular target: RsSHC014 soluble spike ectodomain, stabilised (2P, GSAS linker, T4 fibritin trimerization motif) (bat sarbecovirus RsSHC014 | bacteriophage T4) (UniProt U5WLK5)
[8] = molecular target: WIV1 soluble spike ectodomain, stabilised (2P, GSAS linker, T4 fibritin trimerization motif) (bat sarbecovirus WIV1 | bacteriophage T4) (UniProt U5WI05)
[9] = molecular target: Yun11 soluble spike ectodomain, stabilised (2P, GSAS linker, T4 fibritin trimerization motif) (sarbecovirus Yun11 | bacteriophage T4)

With “BM48-31 soluble spike ectodomain, stabilised (2P, GSAS linker, T4 fibritin trimerization motif) (domain or fragment)” the stoichiometry N [1] was 3.

In the case of “BtKY72 soluble spike ectodomain, stabilised (2P, GSAS linker, T4 fibritin trimerization motif) (domain or fragment)”, the stoichiometry N [2] is reported as 3.

“Pang17 soluble spike ectodomain, stabilised (2P, GSAS linker, T4 fibritin trimerization motif) (domain or fragment)” was tested, and the stoichiometry N [3] was 3.

Substance “RaTG13 soluble spike ectodomain, stabilised (2P, GSAS linker, T4 fibritin trimerization motif) (domain or fragment)” has a stoichiometry N [4] of 3.

“RmYN02 soluble spike ectodomain, stabilised (2P, GSAS linker, T4 fibritin trimerization motif) (domain or fragment)” gave a stoichiometry N [5] of 3.

With “Rs4081 soluble spike ectodomain, stabilised (2P, GSAS linker, T4 fibritin trimerization motif) (domain or fragment)” the stoichiometry N [6] was 3.

“RsSHC014 soluble spike ectodomain, stabilised (2P, GSAS linker, T4 fibritin trimerization motif) (from UniProt U5WLK5 1-1191) (domain or fragment)” gave a stoichiometry N [7] of 3.

“WIV1 soluble spike ectodomain, stabilised (2P, GSAS linker, T4 fibritin trimerization motif) (from UniProt U5WI05 1-1191) (domain or fragment)” showed a stoichiometry N [8] of 3.

With “Yun11 soluble spike ectodomain, stabilised (2P, GSAS linker, T4 fibritin trimerization motif) (domain or fragment)” the stoichiometry N [9] was 3.
